Assay results reported in IntAct's records for PubMed 28827714.

B1: Interleukin-17F (Homo sapiens), Q96PD4 (parent)
chain: MTVKTLHGPAMVKYLLLSILGLAFLSEAAARKIPKVGHTFFQKPESCPPVPGGSMKLDIGIINENQRVSMSRNIESRSTSPWNYTVTWDPNRYPSEVVQAQCRNLGCINAQGKEDISMNSVPIQQETLVVRRKHQGCSVSFQLEKVLVTVGCTCVTPVIHHVQ
partner: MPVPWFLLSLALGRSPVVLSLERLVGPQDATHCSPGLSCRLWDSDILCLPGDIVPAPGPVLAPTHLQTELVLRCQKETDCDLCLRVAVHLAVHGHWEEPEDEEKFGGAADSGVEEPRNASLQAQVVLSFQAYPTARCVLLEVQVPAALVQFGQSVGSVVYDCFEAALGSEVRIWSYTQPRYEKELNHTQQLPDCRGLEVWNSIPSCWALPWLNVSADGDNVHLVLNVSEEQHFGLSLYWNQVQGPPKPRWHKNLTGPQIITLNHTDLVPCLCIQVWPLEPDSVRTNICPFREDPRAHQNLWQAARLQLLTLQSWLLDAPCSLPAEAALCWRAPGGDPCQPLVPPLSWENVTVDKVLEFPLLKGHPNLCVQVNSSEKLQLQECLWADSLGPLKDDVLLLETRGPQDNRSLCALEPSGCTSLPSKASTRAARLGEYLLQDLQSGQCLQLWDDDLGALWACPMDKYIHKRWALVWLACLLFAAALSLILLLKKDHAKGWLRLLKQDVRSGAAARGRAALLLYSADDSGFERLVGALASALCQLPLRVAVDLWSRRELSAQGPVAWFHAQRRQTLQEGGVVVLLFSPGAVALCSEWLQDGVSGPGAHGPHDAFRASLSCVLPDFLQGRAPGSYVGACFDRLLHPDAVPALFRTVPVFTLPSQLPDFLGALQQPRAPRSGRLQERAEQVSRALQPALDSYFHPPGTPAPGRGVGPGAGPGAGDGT
B2: Interleukin-17F (Homo sapiens), Q96PD4 (parent)
chain: B1 chain

Variants of: B1
Settings: with IL17RC

effect of a mutation on the interaction | Variant
decreasing interaction strength | MTVKTLHGPAMVKYLLLSILGLAFLSEAAARKIPKVGHTFFQKPESCPPVPGGSMKLDIGIINENQRVSMSRNIESASTSPWNYTVTWDPNRYPSEVVQAQCRNLGCINAQGKEDISMNSVPIQQETLVVRRKHQGCSVSFQLEKVLVTVGCTCVTPVIHHVQ [R77A]

Variants of: B2
Settings: with IL17RA

effect of a mutation on the interaction | Variant
decreasing interaction strength | MTVKTLHGPAMVKYLLLSILGLAFLSEAAARKIPKVGHTFFQKPESCPPVPGGSMKLDIGIINENQRVSMSRNIESASTSPWNYTVTWDPNRYPSEVVQAQCRNLGCINAQGKEDISMNSVPIQQETLVVRRKHQGCSVSFQLEKVLVTVGCTCVTPVIHHVQ [R77A]
